From patent publication US20110142840A1 (ONCOMED PHARMACEUTICALS, published 2011)

Assays:
[1] = molecular target: T1, human MET Receptor on cells (human, UniProt P08581 25-1390); assay: cell-based or functional assay
[2] = molecular target: T2, recombinant human MET SEMA domain (human, UniProt P08581 27-515); assay: plate binding assay, 384-well plates coated with recombinant domains
T2 construct: domain: SEMA; also called SEMA domain of MET-ECD

[3] = molecular target: T3, recombinant human MET PSI-IPT domains (human, UniProt P08581 516-932, limits assumed); assay: as above
T3 construct: domain: PSI-IPT; also called PSI-IST (as printed once)
T3 sequence (P08581 516-932 limits assumed): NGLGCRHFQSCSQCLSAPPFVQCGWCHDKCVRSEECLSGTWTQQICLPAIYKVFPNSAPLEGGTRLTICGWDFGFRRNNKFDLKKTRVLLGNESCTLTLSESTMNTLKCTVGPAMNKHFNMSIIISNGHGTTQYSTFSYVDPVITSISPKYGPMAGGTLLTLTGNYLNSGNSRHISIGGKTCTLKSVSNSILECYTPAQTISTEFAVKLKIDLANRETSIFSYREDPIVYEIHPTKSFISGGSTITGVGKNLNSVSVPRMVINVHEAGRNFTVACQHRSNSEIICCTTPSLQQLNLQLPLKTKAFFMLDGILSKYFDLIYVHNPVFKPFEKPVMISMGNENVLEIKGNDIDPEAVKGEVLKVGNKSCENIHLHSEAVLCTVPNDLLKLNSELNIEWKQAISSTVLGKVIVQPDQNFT

[4] = molecular target: T1, human MET Receptor on cells; assay: FACS on GTL-16 cells; AF647-R28 fixed at 360 nM, against AF647-R28 without R13
[5] = molecular target: T4, recombinant human MET extracellular domain (MET ECD) (human, UniProt P08581 25-932); assay: BIAcore 2000; MET ECD amine-coupled on CM5 chip, antibody injected at 100-1 nM, global fit
T4 construct: extracellular domain; also called full-length MET-ECD molecule
T4 sequence (P08581 25-932): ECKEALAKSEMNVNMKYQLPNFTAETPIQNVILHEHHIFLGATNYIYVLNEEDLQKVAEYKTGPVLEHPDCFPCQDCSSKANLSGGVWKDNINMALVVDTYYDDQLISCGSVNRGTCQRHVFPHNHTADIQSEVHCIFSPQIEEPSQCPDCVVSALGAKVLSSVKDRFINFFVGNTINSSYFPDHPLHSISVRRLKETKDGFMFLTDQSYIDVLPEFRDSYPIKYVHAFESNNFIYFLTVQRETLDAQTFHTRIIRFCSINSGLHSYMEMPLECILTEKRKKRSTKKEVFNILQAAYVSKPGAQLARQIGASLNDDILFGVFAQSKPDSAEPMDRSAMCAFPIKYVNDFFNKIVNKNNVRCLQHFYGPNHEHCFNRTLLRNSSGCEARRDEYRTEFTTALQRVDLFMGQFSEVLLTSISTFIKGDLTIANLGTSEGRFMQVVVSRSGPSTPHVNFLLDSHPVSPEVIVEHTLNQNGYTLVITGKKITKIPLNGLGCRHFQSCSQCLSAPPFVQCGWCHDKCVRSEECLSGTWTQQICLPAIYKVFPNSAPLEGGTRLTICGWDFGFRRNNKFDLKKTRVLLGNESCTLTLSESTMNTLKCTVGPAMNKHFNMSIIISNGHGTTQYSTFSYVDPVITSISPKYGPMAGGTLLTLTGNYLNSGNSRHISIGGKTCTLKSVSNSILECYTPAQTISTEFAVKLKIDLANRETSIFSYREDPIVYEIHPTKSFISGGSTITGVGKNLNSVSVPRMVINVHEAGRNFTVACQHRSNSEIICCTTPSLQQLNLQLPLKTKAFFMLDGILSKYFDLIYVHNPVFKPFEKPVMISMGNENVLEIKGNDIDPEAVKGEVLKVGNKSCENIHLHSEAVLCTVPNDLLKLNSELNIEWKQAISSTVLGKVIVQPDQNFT
Experimental: (§1) Fab and IgG affinities were determined using a BIAcore 2000 instrument. Briefly, MET ECD was immobilized on a CM5 chip using standard amine based chemistry (NHS/EDC). For each Fab and IgG, different concentrations (100-1 nM) were injected over the MET ECD surface and kinetic data were collected over time. The data was fit using the simultaneous global fit equation to yield affinity constants (KD) for each Fab and IgG.

[6] = molecular target: T5, recombinant human MET/Fc chimeric protein (R&D Systems) (human, UniProt P08581 25-932); assay: HGF/MET blocking ELISA, experiment of Example 3; unit from the legend of FIG. 3; FIG. 3A experiment, antibody alone
T5 construct: extracellular domain; Bought reagent; also called MET Receptor extracellular domain; not shown: Fc part (detected with anti-human Fc) and any linker of the bought chimera
T5 sequence (P08581 25-932, change not shown): as the sequence (P08581 25-932) above

[7] = molecular target: T5, recombinant human MET/Fc chimeric …; assay: HGF/MET blocking ELISA (Dm=IC50): antibody preincubated with MET/Fc, added to HGF-coated wells; unit from the legend of FIG. 2; FIG. 2A, B experiment
Experimental: (§2) After washing the wells once with 0.2% PBS/T, they were blocked with 5% PBS/milk for one hour. […] Washing was repeated as described above. Fifty microliters of substrate were added per well until a yellow color developed. The reaction was then stopped with 50 μL of 1 M H₂SO₄ and the absorbance at 450 nm determined with a standard plate reader.

[8] = molecular target: T5, recombinant human MET/Fc chimeric …; assay: HGF/MET blocking ELISA: antibody preincubated with MET/Fc, added to HGF-coated wells; unit from the legend of FIG. 1
Experimental: as §2

[9] = molecular target: T4, recombinant human MET extracellular …; assay: BIAcore 2000; MET ECD amine-coupled on CM5 chip, antibody injected at 100-1 nM, global fit; Dimer, not IgG
Experimental: as §1

T1 sequence (P08581 25-1390): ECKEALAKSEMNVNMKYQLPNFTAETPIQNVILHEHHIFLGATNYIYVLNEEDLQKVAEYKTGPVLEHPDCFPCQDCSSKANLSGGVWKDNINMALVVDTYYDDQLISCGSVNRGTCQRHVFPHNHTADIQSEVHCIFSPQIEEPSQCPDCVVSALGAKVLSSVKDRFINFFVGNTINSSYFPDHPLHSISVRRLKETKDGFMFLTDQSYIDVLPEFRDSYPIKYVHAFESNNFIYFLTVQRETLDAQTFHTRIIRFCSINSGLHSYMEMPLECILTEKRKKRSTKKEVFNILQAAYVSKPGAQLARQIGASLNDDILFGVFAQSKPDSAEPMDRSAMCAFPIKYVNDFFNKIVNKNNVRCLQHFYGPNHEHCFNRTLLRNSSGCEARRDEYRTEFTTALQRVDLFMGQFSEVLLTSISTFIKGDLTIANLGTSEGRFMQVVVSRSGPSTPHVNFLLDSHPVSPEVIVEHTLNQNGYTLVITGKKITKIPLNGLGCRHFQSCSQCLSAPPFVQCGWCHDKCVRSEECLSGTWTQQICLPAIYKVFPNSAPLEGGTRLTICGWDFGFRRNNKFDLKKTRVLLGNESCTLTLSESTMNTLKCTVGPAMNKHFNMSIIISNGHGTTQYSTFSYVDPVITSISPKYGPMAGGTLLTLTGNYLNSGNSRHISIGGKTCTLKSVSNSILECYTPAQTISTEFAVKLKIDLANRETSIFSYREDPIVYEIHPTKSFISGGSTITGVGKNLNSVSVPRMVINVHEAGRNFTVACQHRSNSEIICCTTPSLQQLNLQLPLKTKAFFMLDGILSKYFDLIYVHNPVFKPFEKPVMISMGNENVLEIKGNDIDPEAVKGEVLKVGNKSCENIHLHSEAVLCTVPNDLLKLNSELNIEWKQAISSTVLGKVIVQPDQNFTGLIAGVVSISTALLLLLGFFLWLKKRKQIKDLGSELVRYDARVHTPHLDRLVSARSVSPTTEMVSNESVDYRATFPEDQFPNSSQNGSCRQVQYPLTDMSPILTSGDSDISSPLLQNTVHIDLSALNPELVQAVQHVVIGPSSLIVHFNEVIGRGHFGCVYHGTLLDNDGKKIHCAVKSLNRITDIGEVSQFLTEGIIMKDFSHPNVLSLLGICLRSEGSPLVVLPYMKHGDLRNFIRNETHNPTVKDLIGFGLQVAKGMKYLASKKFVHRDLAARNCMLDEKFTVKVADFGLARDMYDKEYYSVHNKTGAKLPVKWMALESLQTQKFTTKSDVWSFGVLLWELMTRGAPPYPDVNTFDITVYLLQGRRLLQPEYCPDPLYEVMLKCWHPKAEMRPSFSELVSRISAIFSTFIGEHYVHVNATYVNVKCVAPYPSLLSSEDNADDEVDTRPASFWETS
T2 sequence (P08581 27-515): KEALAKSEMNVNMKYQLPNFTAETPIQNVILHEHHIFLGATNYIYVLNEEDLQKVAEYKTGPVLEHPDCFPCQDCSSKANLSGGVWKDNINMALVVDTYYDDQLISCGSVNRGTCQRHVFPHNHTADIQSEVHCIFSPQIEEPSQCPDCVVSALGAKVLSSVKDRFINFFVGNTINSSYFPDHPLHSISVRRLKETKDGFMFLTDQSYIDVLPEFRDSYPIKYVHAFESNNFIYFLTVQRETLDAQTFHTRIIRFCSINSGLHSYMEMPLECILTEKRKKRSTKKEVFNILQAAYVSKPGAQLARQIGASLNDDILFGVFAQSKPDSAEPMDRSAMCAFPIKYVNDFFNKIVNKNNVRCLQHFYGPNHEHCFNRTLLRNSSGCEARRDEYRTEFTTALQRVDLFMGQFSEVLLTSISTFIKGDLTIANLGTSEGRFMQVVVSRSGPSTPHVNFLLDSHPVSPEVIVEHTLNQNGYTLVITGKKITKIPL

Binder	binding result [3]	Kd [5] [nM]	IC50 [6] [nM]	IC50 [7] [nM]	IC50 [8] [nM]	EC50 of antibody-dependent cellular cytotoxicity (ADCC) on GTL-16 cells [1] [nM]	further results
19-MET (divalent dimer of two 28-MET Fabs linked via a helix-loop-helix motif) (other, also called 19d; dimeric Fab-dHLX of Fab 28) VH: QVQLQESGPGLVKPGETLSLTCTVSGGSISGYYWSWIRQAPGKGLEWIGEIYYAGSTLYNPSLKGRVTISVDTSKNQFSLKLSSVTAEDTAVYYCARHYGLDWFGDTGMDVWGQGTLVTVSS VL: DIELTQPPSVSVAPGQSITISCSGDNLGDKYVHWYQQKPGQAPVLVIYDDNERPSGIPERFSGSNSGNTATLTISGTQAEDEADYYCSAYGSHSGTVFGGGTKLTVLG		8.7	106	44.3			
13-MET human IgG1 antibody (antibody, V domains shown, Fab variable regions combined with human constant regions to give a full human IgG1; ATCC deposit PTA-9148; also called 13-MET IgG; MET-13 IgG) VH: QVQLKESGPALVKPTQTLTLTCTFSGFSLSTSGMVVSWIRQPPGKALEWLAFISWDDDKYYSTSLKTRLTISKDTSKNQVVLTMTNMDPVDTATYYCAREPGRYGGYYFDYWGQGTLVTVSS VL: DIQMTQSPSSLSASVGDRVTITCRASQTISHYLAWYQQKPGKAPKLLIYAASILQSGVPSRFSGSGSGTDFTLTISSLQPEDFAVYYCQQYSGFPVTFGQGTKVEIKR	no binding	0.9				479	
13-MET monovalent Fab (Fab, V domains shown, Monovalent human Fab from the Morphosys HuCAL GOLD Fab library; the Fab constant parts are not; also called Fab-13; R13) VH: QVQLKESGPALVKPTQTLTLTCTFSGFSLSTSGMVVSWIRQPPGKALEWLAFISWDDDKYYSTSLKTRLTISKDTSKNQVVLTMTNMDPVDTATYYCAREPGRYGGYYFDYWGQGTLVTVSS VL: DIQMTQSPSSLSASVGDRVTITCRASQTISHYLAWYQQKPGKAPKLLIYAASILQSGVPSRFSGSGSGTDFTLTISSLQPEDFAVYYCQQYSGFPVTFGQGTKVEIKR					12.4		
9-MET (divalent dimer of two 13-MET Fabs linked via a helix-loop-helix motif) (other, also called 9d; dimeric Fab-dHLX of Fab 13) VH: QVQLKESGPALVKPTQTLTLTCTFSGFSLSTSGMVVSWIRQPPGKALEWLAFISWDDDKYYSTSLKTRLTISKDTSKNQVVLTMTNMDPVDTATYYCAREPGRYGGYYFDYWGQGTLVTVSS VL: DIQMTQSPSSLSASVGDRVTITCRASQTISHYLAWYQQKPGKAPKLLIYAASILQSGVPSRFSGSGSGTDFTLTISSLQPEDFAVYYCQQYSGFPVTFGQGTKVEIKRT			8.88	5.08			Kd [9]: 0.56 nM

Second part, led by results:

binding result [3]	Kd [5] [nM]	IC50 [6] [nM]	IC50 [7] [nM]	IC50 [8] [nM]	Binder	EC50 of antibody-dependent cellular cytotoxicity (ADCC) on GTL-16 cells [1] [nM]	further results
no binding	47.9				28-MET human IgG1 antibody (antibody, V domains shown, Fab variable regions combined with human constant regions to give a full human IgG1; ATCC deposit PTA-9149; also called 28-MET IgG; MET-28 IgG) VH: QVQLQESGPGLVKPGETLSLTCTVSGGSISGYYWSWIRQAPGKGLEWIGEIYYAGSTLYNPSLKGRVTISVDTSKNQFSLKLSSVTAEDTAVYYCARHYGLDWFGDTGMDVWGQGTLVTVSS VL: DIELTQPPSVSVAPGQSITISCSGDNLGDKYVHWYQQKPGQAPVLVIYDDNERPSGIPERFSGSNSGNTATLTISGTQAEDEADYYCSAYGSHSGTVFGGGTKLTVLG	3770	binding result [2]: no binding; fold increase of ΔMFI with 20 nM unlabeled R13 [4]: 2.6 fold
	49			36.1	28-MET monovalent Fab (Fab, V domains shown, Monovalent human Fab from the Morphosys HuCAL GOLD Fab library; the Fab constant parts are not; also called Fab-28; R28) VH: QVQLQESGPGLVKPGETLSLTCTVSGGSISGYYWSWIRQAPGKGLEWIGEIYYAGSTLYNPSLKGRVTISVDTSKNQFSLKLSSVTAEDTAVYYCARHYGLDWFGDTGMDVWGQGTLVTVSS VL: DIELTQPPSVSVAPGQSITISCSGDNLGDKYVHWYQQKPGQAPVLVIYDDNERPSGIPERFSGSNSGNTATLTISGTQAEDEADYYCSAYGSHSGTVFGGGTKLTVLG		
